Numbering of substitutions follows the chain as printed.
Assays:
[1] = molecular target: yeast histone chaperone protein Asf1 (Anti-silencing factor 1) (yeast) (UniProt P32447); experiment: cell-based or functional assay
[2] = molecular target: N-terminal methyltransferase domain of the Zika virus bifunctional NS5 enzyme (MT ZIKV) (Zika virus); experiment: cell-based or functional assay
[3] = molecular target: N-terminal methyltransferase domain of the Zika virus bifunctional NS5 enzyme (MT ZIKV) (Zika virus); experiment: SPR, Fab as analyte on His-tag-immobilized antigen
[4] = molecular target: Fab^H(Her2)-linker-GA1 fusion (13 residue linker); experiment: cell-based or functional assay
[5] = molecular target: “Λ” Fab scaffold (4D5 scaffold with SEELQANK in the Lc region); experiment: SPR (preliminary results), Protein G variant against Fab scaffold
[6] = molecular target: Fab^H (Herceptin Fab scaffold with wt human kappa Lc; Lc aa 123-127 EQLKS); experiment: as above
[7] = molecular target: FabHS (human 4D5 scaffold with residues PEELRTNK replacing amino acids corresponding to 15-22 of SEQ ID NO:1); experiment: protein ELISA
[8] = molecular target: Fab with CK (kappa) light chain constant domain; experiment: ELISA

Sequence of FabHS (human 4D5 scaffold with residues PEELRTNK replacing amino acids corresponding to 15-22 of SEQ ID NO:1) (light, as listed by the source): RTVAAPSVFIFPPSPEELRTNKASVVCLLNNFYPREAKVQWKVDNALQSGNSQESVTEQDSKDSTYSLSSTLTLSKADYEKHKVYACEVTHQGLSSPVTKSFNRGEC
Sequence of yeast histone chaperone protein Asf1 (Anti-silencing factor 1) (yeast) (P32447 1-158 limits assumed): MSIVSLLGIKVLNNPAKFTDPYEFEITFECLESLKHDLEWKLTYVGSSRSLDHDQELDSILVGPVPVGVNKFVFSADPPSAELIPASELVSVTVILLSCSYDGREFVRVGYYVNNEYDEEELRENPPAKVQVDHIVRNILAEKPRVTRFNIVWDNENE
Sequence of “Λ” Fab scaffold (4D5 scaffold with SEELQANK in the Lc region) (light, as listed by the source): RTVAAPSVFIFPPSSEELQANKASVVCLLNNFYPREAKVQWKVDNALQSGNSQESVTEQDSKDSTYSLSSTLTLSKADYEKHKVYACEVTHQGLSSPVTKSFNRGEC

B1: E11 Asf1 LRT-Fab (Fab, V domains shown)
VH: EVQLVESGGGLVQPGGSLRLSCAASGFNISYSSIHWVRQAPGKGLEWVASISSYYGSTYYADSVKGRFTISADTSKNTAYLQMNSLRAEDTAVYYCARSRGQASWDYWGQGTLVTVSS
VL: DIQMTQSPSSLSASVGDRVTITCRASQSVSSAVAWYQQKPGKAPKLLIYSASSLYSGVPSRFSGSRSGTDFTLTISSLQPEDFATYYCQQSSDDPITFGQGTKVEIKR
- β-lactamase (BL) split-enzyme complementation, fluorescent signal [1]: < 10 fold

B2: Z2G6 ZIKV LRT-Fab (Fab, V domains shown)
VH: EVQLVESGGGLVQPGGSLRLSCAASGFNVYYYYIHWVRQAPGKGLEWVASIYSYSGYTYYADSVKGRFTISADTSKNTAYLQMNSLRAEDTAVYYCAREGVWWEDEFYPGLDYWGQGTLVTVSS
VL: B1 VL with S92W, D93S, D94S, P95L, I96F
- β-lactamase (BL) split-enzyme complementation, limit of antigen detection [2]: 30 nM
- Kd [3]: 1.7 nM
- koff [3]: 9.2e-05 s⁻¹

B3: Z2C4 ZIKV LRT-Fab (Fab, V domains shown)
VH: EVQLVESGGGLVQPGGSLRLSCAASGFNVYYSSIHWVRQAPGKGLEWVAYIYPSSGSTYYADSVKGRFTISADTSKNTAYLQMNSLRAEDTAVYYCARSWSPYGMDYWGQGTLVTVSS
VL: B1 VL with S91W, S92Y, D94S, P95L
- β-lactamase (BL) split-enzyme complementation, limit of antigen detection [2]: 30 nM
- Kd [3]: 0.7 nM

B4: hOKT3(S)_LRT (Fab, V domains shown)
VH: EVQLVESGGGLVQPGGSLRLSCAASGYTFTRYTMHWVRQAPGKGLEWIGYINPSRGYTNYNQKFKDKATISTDKSKNTAYLQMNSLRAEDTAVYYCARYYDDHYSLDYWGQGTLVTVSS
VL: DIQMTQSPSSLSASVGDRVTITCSASSSVSYMNWYQQKPGKAPKRWIYDTSKLASGVPSRFSGSGSGTDYTLTISSLQPEDFATYYCQQWSSNPFTFGQGTKVEIKR
- redirected tumor-cell killing (LDH release), PBMC-SKBR3 co-cultures, bi-Fab at 50 nM [4]: < 70%

B5: Protein G D (designed binder)
chain: TPAVTTYKLVINGRTLSGYTTTTAVDAATAEKVFKQIDMVSSVDGEWTYDDATKTFTVTEKPEKL
- Kd [5]: 50 nM
- Kd [6]: 15 nM

B6: Protein-G-HS C6 (designed binder)
chain: MKGETTTEAVDAATAEKVFKQYANDNGVDGEWTYDDATKTFTVTEKPEVIDASELTPAVTTYKLVINGKTLKGETTTEAVDAATAEKVFKQYANDNGVDGEWTYDDATKTFTVTEKPEVIDASELTPAVTTYKLVINGRTLSGETTTKAVDAETAEKAFKQYSRPHVVDGVWTYDDATKTFTVTE
- IC50 [7]: 8 nM

B7: Protein-G-HS C7 (designed binder)
chain: B6 chain with S163A, R164Y, P165G, H166A
- IC50 [7]: 100 nM

B8: Protein-G-A1 (SEQ ID NO:27) (designed binder)
chain: MKGETTTEAVDAATAEKVFKQYANDNGVDGEWTYDDATKTFTVTEKPEVIDASELTPAVTTYKLVINGRTLSGYTTTTAVDAATAEKVFKQYAYVHEVDGEWTYDDATKTFTVTEKPEVIDASELTPAVTTYKLVINGRTLSGETTTKAVDAETAEKAFKQYANDNGVDGVWTYDDATKTFTVTE
- EC50 ratio (preference for CK over Cλ) [8]: > 5000

— patent US20240043534A1
